Data reported in a protein production outcome set (Wang et al. 2014).

Assay: label from the status in PepcDB records

Row | Sequence | protein production
1 | MKKIGIIGAGGIARAHATALSTIKNAELVGVYDINQQNAESFVKTFGGKSFENVDELIDASEGLIVASPNFCHKEHALQALGKHKHVLCEKPMAISLEEASIMKDTAERLSVRASMGFNYRYLSYVNILKSLIINNELGNILSIKVHFKKNSALRRKKFTWRDDANSKKTSGSLGDLGIHLIDMVWYLFESDFITESVRAKMNTNVKTKEDKQVLVDDYAEIYGQLRNKVFVNIITSKCSVPEDCGFSIEVVGHKKEFKYHTGNPHVYKLIDGLNVVDCPVPQSLLNDPPNEFYGWADSFRSELINWIASTQNDWVEIPSFSDGFRSQEVLEMFFEKDSNSQPLEHHHHHH | not failed
2 | MLSIKANHFMPIVRLKENEPFEAALRRFKRTIEKTGLLTELRSREFYEKPTAERKRKHAAAVKRHYKRIRSQQLPPRLYLEHHHHHH | failed
3 | MVSRDFDRDKRLLTARQFSAVFDSPTGKVPGKHVLLLARENGLDHPRLGLVIGKKNVKLAVQRNRLKRLIRESFRHNQETLAGWDIVVIARKGLGELENPELHQQFGKLWKRLLRNRPRTESPADAPGVAD | not failed
4 | MYDMVREKTYYFMIVERITIMTEKMTRMTQFVKEEIANAITHGIGAILSIPALIILIIHASKHGTASAVVAFTVYGVSMFLLYLFSTLLHSIHHPKVEKLFTILDHSAIYLLIAGTYTPFLLITLRGPLGWTLLAIIWTLAIGGIIFKIFFVRRFIKASTLCYIIMGWLIIVAIKPLYENLTGHGFSLLLAGGILYSVGAIFFLWEKLPFNHAIWHLFVLGGSAMMFFCVLFYVLPTAS | failed
5 | MKWDKKWNDGIILALETAFISWFTYAFLYQNYLLYKWHRGSPLPSKIPFVLAGIFVGLAFLAWKGRNLLKPLRENNGGALDERS | failed
6 | MISVVGAGGKTSLLFWLAELLQASGRRVLITTTTHMFMPTSHWPVVFCRDPAMLPHASLTSPISFCFHSWKANQGKVQGFTPEAIDALVQRPECDVILIEADGSRGMPLKAPDEHEPCIPKSSCCVIAVMGGHTLGAKVSTENVHRWSQFADITGLTPDATLQLSDLVALVRHPQGAFKNVPQGCRRVWFINRFSQCENAIAQSELLQPLQQHDVEAIWLGDIQEHPAIARRFVNLEHHHHHH | not failed
7 | MTNSKQKLVLASGSPRRLELLHQIGIEPARLMPMDIDETPVKLEHPRTLCRRLSQQKAEAAQAALKSEQAWKDAYVLGSDTVVAVGRRIVGKAEYTEEASAALHLLSGRSHWVYTGICLVTPDGKIRQKVAETKVRFKRLSTREIDAYIASGQWRGKAGAYGIQGIAGAFVQKLTGSYTNVVGLPLYETMSLLSGEGFEVTSGWLEG | failed
8 | MNEKSFNYDFSVIMPIYNVELYLTEAIESIINQTIGFENIQLILVNDDSPDKSEIICKEYAQKYPNNIVYAKKQNGGVSSARNYGLKYAEGRYIQFLDPDDLVSEGTFENVLNFFDEHKNEIDIVAIPIFFAEGRTGEHNLNNKFSSTRILDVEKEPHHILTHCCSTFIKKDALKNIRFDENCKIGEDAKLVNLIISQKKKYGLVKEAKYHYRVREDGSSAMQTAKANKNWFNHSLITFSKNLIDIIKNHEQKIPLFLQYMVMHDLKWKLLIKDISETPLDENEYSEFLTLIREVLSYIDDDVIIETKSVSHFYLYHALKIKHGENYSRYVYERETEQDYYLYREGKIVSKLSDQTLTIEILEENEDSIHIEGFWSSLFNSKGFKFYAKIGETKIKAKNIKRQHNDYISLGEVIKKYPGFSIDIPKGHLADNHHIEFFITKGKKRKLTKLRFFKYSGLSNDLYNTYVAKKDYIFYYNYKKLMFKKNNFKNRFIKEFRFLKSLHKSGEKSKKRKSAIKKALMARMVHHVFTIFNRKPVWLFIDRQDKADDNAEHLFKYAINKNDGVKKYFIIKKDSKDYDRIKKYGKVIPYRSFRHKILTLSSSKVISTHADIWVVNPFFNMEIYFRDLFNFEFIFLQHGITMADHSEWLNKYNKNIKLLVTSAKPEYRSIVKGNYNYKKENILLGGFPRYDNLKKSEGEKQLLIMPTWRKDIVLPKDQAKGVRPYNPKFKDSEYFSRYNALINDERLIEFAKKNNYKITFFPHPDIQQQIVDFEKHDYVEFADYNSSYQMLFNSSNIMITDFSSVAFDFAYEKKPVIYYQYEKSYHFKLDYYDYKKMGFGDVLENHNSLVDKVIYYMKNNSRMEDKYRKRVDNFFAYTDKNNRNRIYNAILELDNNKVAK | failed
9 | MGGRVTDVYNAFVPLVHISNNSTSDTNKAKENIISKLLDILSGIFVPIIHAIIGAGLLKGILIFLNFYHLVSPATSTYKLLSVFSDSAFYFMPILLAYSSAKKFKTNKYVAVAIAGILVHPELISMMSKSASVKFFGIPFTSATYSTSVLPIILGVWVMSYIERGLNKIIPKILRTVLVPLFTLLITAPIILGILGPIGTIVGDAIGQGTVQLYLHYGVIAGILVGAAYPFLVIMGMHVGFTPVMVQSLSKYGVDYMMGIFVASNSAEAGATTAVWLKTKNKQLKEIAGSSALNAIIGVTEPALFGVTSKLKKPLIAVSIGGAVGGGIAGLFKVAAQGAGTGPIAGIPLFFGKTFIWFIISCLVSYVVSFILAYVIGFEDIPNPEDLSQKNSMDNHEKIVTTVVANQSVADPVNGNVIPLSEVKDNVFSSKMMGDGAAIVPNDNKIYAPFDGVVELVFETKHAIGLKSYDGCELLIHVGLDTVELKGKHFISHVIKDQKVKKGDLLLEFDREAISKEGYDTTIPVIVTNSKDFENITKTKKKQLQHGEELLKLTAKNKEN | failed
10 | MRGLAVLVLLVFAVQVAAAEDFRPVVFVHGLAGSAGQFESQGMRFAANGYPAEYVKTFEYDTISWALVVETDMLFSGLGSEFGLNISQIIDPETLDKILSKSRERLIDETFSRLDRVIDEALAESGADKVDLVGHSMGTFFLVRYVNSSPERAAKVAHLILLDGVWGVDAPEGIPTLAVFGNPKALPALGLPEEKVVYNATNVYFNNMTHVQLCTSPETFAVMFEFINGYKPATTDIVPQDGDYVKVKGKFLAFATNGDVSGWLSIYPIDENGKRLTRLPVKFMRVKGDFEVRLRKGQLYEFQFRKDFSPIIYHYYRAPFVRDDLWARFLVSKPPLDVELLILPERLSPAAKETSGLLLIRYKEMIGEYDEEIGGVDEVYVNGVNVCTERICPIERAVNGLWVFDRGADGKSDLDREVVRYSIMPFMSAADLVVPAEGTISIAVKSRTGGEESFTIPAWSADRHSIIVQFSDYI | failed
11 | MSNALKSIDFRTNKSKDAVIVVELASPAAIVDVKRVQEGLSIDLMNTSVKDEQLYLLDVKDFATVVESVEVFRDTSTTRLVAYIDEEYTHDYRLTGRYLEITVSKLKPNEKVPDKSILEKEGKLISINFQDIPVRNVLQLIADYNQFNLVVSDSVEGNLTLRLDGVPWQQVLDIILQVKGLDKRVDGNVILVAPTDELDLREKQQLEKQKLTEEMGELSSEIIKVNFAKASDIAEMINGEGNISMLSERGSMTIDERTNSLLIRELPENIAVIREIIESLDIPVKQVQIEARIVTISEGNMDELGIRWGFTSINGNNTVGGSIENNLATIGLYEGGGDGEGEEGGVGIDDFLNVNLAATNPNAASIAFQVAKLGSDTLLDLELSALQQESKAEIISSPRLITTNKKPAYIEQGTEIPYLESSSSGATSVTFKKAVLSLKVTPQITPDNRLVLDLSVTQDRPGKVVKTGTGEAMAIDTQRIGTQVLVNNGETVVLGGIFQHSITNSVDKVPLLGDLPLLGALFRRSYENVGKSELLIFVTPKVVIQLEHHHHHH | not failed
12 | MEENKPVFSIITVCYCARDIIAKTAHSVLSQTYPNIEYIVVDGASPDNTAEVVRSLSSDIRLISEPDKGLYDAMNKGLRMALGDYVWFLNAGDLLPSDDLVEAIANGIKSSPMGLPDVLYGDTMLIDATGKEKGLRRLRPPFELQWRSFADGMLVCHQAFIAKRLIAPPYNMKYRFSADFDWCIRILQAARNIVNTEMILVHSLDDRGGITYKNHKASLKERFLIMKHYYGSRKSIMKHLSFFFRRKR | failed
13 | MTTHHETYTAPPFGPALMLNAFAPSRGWNPKDGFPDFSFIWRGYQISPAALATLQRAAGRDDAATADRLILLAPHVTGFRLTMALLMCRDWPLPIWRALQLRNRLIRSGDIKLDAASDLIVRAIGWRVHDKGIELDVLAQLMQGGDCPWQSITTFYYRGRFDGPASHGADDGAPMASPPIDPSLPPMTQWTVDGGERLRWAALTGDYNPLHLVDIYARATGFAAASAHPQRIAAQCLGHLAPTPEHPTQLDLWLKGPVYFGRSASLREASNDDGTTFGLWIDGDDRPAMVGVMR | failed
14 | MRLGRIASPDGVAFVSIEGELDNPAEMIAREIAEHPFGTPNFTGRSWPLADVRLLAPILASKVVCVGKNYADHIAEMGEATGPVPADPVIFLKPNTAIIGPNVPIRLPANASPVHFEGELAVVIGRPCKDVSAAQAAENILGYTIGNDVSARDQQRSDGQWTRAKGHDTFCPVGPWIVTDLNPLDPGDLELRTEVNGEVKQRSRTSLLIHDIGSIVEWISAVMTLLPGDLILTGTPAGVGPIEDGDTVSITIEGIGTLTNPVVRKGKS | failed
15 | ATAPTPASSETLSGNPALPPPVPGERHDIDSFGGRLTYWSAAPAEPTSEPPLLLIHSVNAAGSAYEVRPIFEHYARSRPVYAIELPGFGHSSRAKRQYTIRMMTDAVHSVVAEIQKVHADKRIDALALSLGSEFLARAASETPQAFRSLALVAPTGFDKKNQRWTAGSRAIPWLHSFFENPVWSESIFKLLTMKPVIGWFLKKAFGSPSIDQGMLDYDYLTTHQPGAQHAPYYFVSGYLFSQDILRIYQDLPMPVWFSHGVRGDFVDYTLKTTVEGRPNWTVTVFQTGAMPHFEVPGEFMRAYDEFLGRVTKA | failed
16 | MVKVPVLRIGKVAAPTGADHALAGSAFPAKNAIADVNPPASPWIDKSVAAQRTEKAGLAAPRSEVTLDFVPPVTRRTPRITFPRRGRSDWTHSLTNSLRMSDTALVAAAVFAGFALNTNGLSLAAESPAFTHHLMTGLILGLVWLGALEVYRTRDPKVLGVGPEEYKRVLSASFRVFGFLGIVAVVFRLDAVSSFVLVSLPLGLVALTGSRWSFRRWLSHEKSRGRCLSRAIVVGEPQDVRYVIKQINRKSGAAYDILGACLPGARRGAVLKVDHLRVPVLSSIYGIAHTVRQTGANAVIVAGPVPGGNQFIQELGWQLEENAAELVLAATLTNVAGPRIHWRPVEGLPLMHVDIPHYSGGKHTLKRLMDITVSASALLILSPILLLLAAIVHHDSPGPVLFRQERVGRRGTTFHMLKFRSMVVDAESRLEELNTRDEGAGVLFKIRGDPRITRCGRWMRKYSLDELPQFWNVLVGNMSLVGPRPPLAREVSGYERHTHRRLLIKPGITGLWQINGRSDLPWDEAVRLDLYYVENWSIAGDLIIMWRTFRAMIQPSGAY | failed
17 | MQLRTKLVIYSTVCCAFGVLLTLATMKYLFSTSSPEVATPATLPDVQLPELDLAQLQDSVAAIESAIKNTEQFQQAFSLQERLRADQIKHELQKLEQLKQEQLQIKLYKLELLKQGLFNPAPHPANMVPALPVVEQSKLPPLSLDPQAEHTPPIFELVLVILLACSVCALGVAWFTRHLARSLDALEVGLLNFNDNDFSVSIPTNGEGQLKTLAELFNHSAAKLRQERQYIYQRELLLDKVIQSSPNVMLLLNDHQRLMYANDAARHLFQIKGKMEGLSLEELLQELPEALALALKQEKSGLFTMGEDDAETWYLSRGQFLLNNQQHNLILLKQMTRELNRQEVAVWKKVIRIISHELNNSVAPIASMVNSGRLLTKDLDNPKLKLIFDTIESRTNHLSQFIYNYARFAKLPLPQRRKVAWSQLIEQLTQHYPFSLTHELPIEDGYVDQGQMEQVLLNLLKNAHESGSNPEEVTLSIRYQKMVDGGGFSIKIEDRGSGMSEEVLEQALLPFYSTKQSGTGLGLPLCREIIEAHDGSISMHNRTEGGLSVLLWLPQ | failed
18 | MVKLDRYIGSSVFMAILAVLGIILGLASLFAFIDEMGAVNETYTVVDVMSYVALTAPRRVYEMLPMAGLIGCLIGLGSLASNSELTIMRAAGVSVGRIVWAVMKPMLVLMLVGVLVGEYVAPATETQAQASRALAQGSGDAQSSKHGLWHRQGDEFIHINAVQPNGLLYGVTRYHFDDQRHMLSSSFARQARFHEDYWQLTDVTTTYFRDGHTEVISVPGERWDVALSPQLLSTVVMAPESLSISGLWGYIHYLADQGLNNGRYWLAFWVKVLQPLVTAALVLMAISFIFGPLRSVTLGQRVFTGVLVGFTFRIAQDLLGPSSLVFGFSPLFAVLVPAGICAVAGVWLLRRAG | failed
